From the RNAGym collection of RNA variant scans (doi:10.1073/pnas.2313332121) come the findings set out here.

Sequences and labels used below:
B1: TPR t1 (parent)
chain: GACCAAUCUGCCCUCAGAGCUCGAGAACAUCUUCGGAUGCAGAGGAGGCAGGCUUCGGUGGCGCGAUAGCGCCAACGUCCUCAACCUCCAAUGCAUCCCACCACAUGAUGAUGCCUGAAGAGCCUUGGUUUUUUG

The data set covers variants of B1. The data set is described as follows: polymerase ribozyme fitness, log enrichment relative to wild type (log ratio); higher = more active; in vitro selection for triplet polymerase activity. The gist of the method:
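Mutant libraries were PCR-built and transcribed for each subunit of a heterodimeric triplet polymerase ribozyme and selected for one round in triplicate at −7 °C, frozen, before gel excision of extended constructs and streptavidin-bead capture. Input and output libraries were Illumina-sequenced, keeping genotypes with ≥10 input reads and ≥1 read per output. Fitness is a logarithmic ratio of genotype to wild-type enrichment, in base 2, using inverse-variance-weighted replicate averages.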
As for GACCAAUCUGCUCUCAGAGCUCGAGAACAUCUUCGGAUGCAGAGGAGGCAAGCUUCGGUGGCGCGAUAGCCCCAACGUUCUCAACCUCCAAUGCAUCCCAACACAUGAUGAUGCCUGAAGAGCCUUGGUUUUUUG, the “polymerase ribozyme fitness (log ratio)” value was -5.68.
Take GACCAAUCUGCUCUCAGAGCUCGAGAACAUCUUCGGAUGCAGAGGAGGCAGGCUUCGGUGGCGCGAUAGCGCCAACGUCCUCAACCCCCAAUGCAUCCCACCACAUGAUGAUGCCUGAAGAGCCUUGGUUUUUUG: the “polymerase ribozyme fitness (log ratio)” value turned out to be 1.04.
With GACCAAUCUGCUCUCAGAGCUCGAGAACAUCUUCGGAUGCAGAGGAGGCAGGCUUCGGUGGCGCUAUAGCGCCAACGUCCUCAACCUCCAAUGCAUCCCACCACAUGAUGAUGCCUGAAGAGCCUUGGUUUUUUG the figure was -4.93; with GACCAAUCUGCUCUCAGAGCUCGAGAACAUCUUCGGAUGCAGAGGAGGCAGGCUUCGGUGGCGCGAUAACGCCAACGUCCUCAACCUCCAAUGCAUCCCACCACAUGAUGAUGCCUGAAGAGCCUUGGUUUUUUG, -2; with GACCAAUCUGCUCUCAGAGCUCGAGAACAUCUUCGGAUGCAGAGGAGGCAGGCUUCGGUGGCGCGAUAGCGCCAACGUCCUCAACCUCCAAGGCAACCCACCACAUGAUGAUGCCUGAAGAGCCUUGGUUUUUUG, -2.63.
With GACCAAUCUGCCAUCAGAGCUCGAGACCAUCUUCGGAUGCAGAGGAGGCAGGCUUCGGUGGCGCGAUAGUGCCAACGUCCUCAACCUCCAAUGCAUCCCACCACAUGAUGAUGCCUGAAGAGCCUUGGUUUUUUG the figure was -5.92; with GACCAAUCUGCUCUCAGAGCUCGAGAACAUCUUCGGAUGCAGAGGAGGCAGGCUUCGGUGGCGCGAUAGCGCCAACGUCCUCAACCUCCAAUGCAUCCCACCACAUGAUGAUGCCUGAAGAGCCUUGGUGUUUUG, 0.00659; with GACCAAUCUGCUCUCAGAGCUCGAGAACAUCUUCGGAUGCAGAGGAGGCAAGCUUCGGUGGCGCGAUAGCGCCAACGUCCUCAACCUCCAAUGCAUCCCAUCACAUGAUGAUGCCUGAAGAGCCUUGGUUUUUUG, -2.14.
Next, GACCAAUCUGCUCUCAGAGCACGAGAACAUCUUCGGAUGCAGAGGAGGCAGGCUUCGGUGGGGCGAUAGCGCCAACGUCCUCAACCUCCAAUGCAUCCCACCAUAUGAUGAUGCCUGAAGAGCCUUGGUUUUUUG: -2.05.
Consider GACCAAUCUGCUCACAGAGCUCGAGAACAUCUUCGGAUGAAGAGGAGGCAGGCUUCGGUGGCGCGAUAGCGUCAACGUCCUCAACCUCCAAUGCAUCCCACCACCUGAUGAUGCCUGAAGAGCCUUGGUUUUUUG, for which the “polymerase ribozyme fitness (log ratio)” value is -4.37.
On to GACCAAUCUGCCAUCGGAGCUCGAGAACAUCUUCGGAUGCAGAGGAGGCAGGCUUCGGUGACGCGAUAGCGCCAACGUGCUCAACCUCCAAUGCAUCCCACCACAUGAUGAUCCCUGAAGAGCCUUGGUUUUUUG, for which the “polymerase ribozyme fitness (log ratio)” value is -5.27.
With GACCAAUCUGCUCUCAGAGCUCGAGAACAUCUUCGGAUGCAGAGGAGGCAGGCUCCGGUGGCGCGAUAGCACCAACGUCCUCAACCUCCGAUGCAUCCCACCACAUGAUGAUUCCUGAAGAGCCUUGGUUUUUUG, the “polymerase ribozyme fitness (log ratio)” value was -2.97.
Next, GACCAAUCUGCUCUCAGAGCUCGAGAACAUCUUCGGAUGCAGAGGAGGCAGGCUUCGGUGGCGCGAUAGCGCCAACGCCCUCAACCUCCAAUGCAUCCCACCACAUGAUUAUGCCUGAAGAGCCUUGGUUUUUUG: -1.38.
As for GACCAAUCUGCUCUCAGAGCUCGAGAACAUCUUCGGAUGCAGAGGAGUCAGGCUUCGGUGGCGCGAUAGCGCCAACGUCCUCAACCUCCAAUGCAUCCCACCACAUGAUGAUGCCUGAAGAGCCUUGGUUUUUUG, the “polymerase ribozyme fitness (log ratio)” value was -0.505.
With GACCAAUCUGCUCUCAGAGCUCGAGAACAUCUUCGGAUGCAGAGGAGGCAGGCUUCGGUGGCGCGAUAGCCCCAACGUCCUGAACCUCCAAUGCAUCCCACCACAUGAUGAUGCCUGAAGAGCCUUGGUUUUUUG the figure was -1.53; with GACCAAUCUGCUCUCAGAGCUCGAGAACAUCUUCGGAUGCAGAGGAGGCAGGCUUCGGUGUCGCGAUAGCGCCAACGUCCUCAACCUACAAUGCAUCCCACCACAUGAUGAUGCCUGAAGAGCCUUGGUUUUUUG, -0.482.
For GACCAAUCUGCUCUCAGAGCUCGAGAACAUCUUCGGAUGCAGAGGAGGCAGGCUUCGGUGGCGCGAUAGCGCCAACCUCCUCAACCUCCAAUGCAUCCCACCACAUGAUGAUGCCUGAAGAGCCUUGGUUUUUUG, the “polymerase ribozyme fitness (log ratio)” value turned out to be 0.201.
For the variant GACCAAUCUGCUCUCAGAGCUCGAGAACAUCUUCGGAUGCAGAGGAGGCAGGCUUCGGUGGCACGAUAGCGCCAACGUCCUCAACCUCCAAUGCAUCCCACCACAUGAUGAUGCCUGAAGAGCGUUUGUUUUUUG, the “polymerase ribozyme fitness (log ratio)” value worked out at 1.79.
Next, GACCAAUCUGCUCUCAGAGCUCGAGAACAUCUUCGGAUGCAGAGGAGGCAGACUUCGGUGGCCCGAUAGCGCCAACGUCCUCAACCUCCAAUGCAUCCCACCACAUGAUGAAGCCUGAAAAGCCUUGGUUUUUUG: -0.326; GACCAAUCUGCCAUCUGAGCUCGAGAACAUCUUCGGAUGCAGAGGAGGCAGGCUUCGGUGGCGCGAUAGCGCCAACGUCCUCAACCUCCAAUGCAUCCCAGCACAUGAUGAUGCCUGAAGAGCCUUGGUUUUUUG: -4.02; GACCAAUCUGCUCUCAGAGCUCGAGAACAUCUUCGGAUGCAGAGGAGGCAGGCUUCGGUGGCGCGAUAGCACCAACGUCCUCAACCUCCAAUGUAUCCCACCACAUGAUGAUGCCUGAAGAGCCUUGGUUUUUUG: -1.26.
With GACCAAUCUGCUCGCAGAGCUCGAGAACAUCCUCGGAUGCAGAGGAGGCAAGCUUUUGUGGCGCGAUAGCGCCAACGUCCUCAACCUCCAAUGCAUCCCACCACAUGAUGAUGCCUGAAGAGCCUUAGUUUUUUG the figure was -5.28; with GACCAAUCUGCUCACAGAGCUCGAGAACAUCUUCGGAUGAAGAGGAGGCAGGCUUCGGUGGCGCGAUAGCGCCAACGUCCUCAACCUCCAAUGCAUCCCACCACCUGAUGAUGCCUGAAGAGCCUUGGUUUUUUG, -3.92.
With GACCAAUCUGCUCUCAGAGCUCGAGAACAUCUUCGGAUGCAGAGGAGGCAGGCUUCCGUGGCGCGAUAGCGCCAACGUCCUCAACCUCCAAUGCAUCCCACCACAUGAUGAUGCCUGAAGAGCCUUGGUUUUUUG, the “polymerase ribozyme fitness (log ratio)” value was found to be 0.562.
With GACCAAUCUGCUCUCAGAGCUCGAGAACAUCUUCGGAUGCAGAGGAGGCAGGCUUCGGUGGCGCGAUAGCGCCAACGUCCUCAACCUCCAAUGCAUCCCACCACAUGAUGACGCCUGAAGAGCCUUGGUUUUUUG the figure was 1.26.
Next, GACCAAUCUGCUCUCAGAGCUCGAGAACAUCUUCGGAUGCAGAGGAGGCAGGCUUCGGUGGCGCGAUAGCGCCAACGUCCUCAACCUCCAAUGCAUCCCACCACAUGAUGAUGCCUGAAAAGCCUUGGUUUUUUG: 1.63; GACCAAUCUGCUCUCAGAGCUCGAGAACAUCUUCGGAUGCAGAGGAGGCAGGCUUCGGUGGCGCGAUAGCGCCAACGUCCUCAACCUCCAAUGCAUCCCACCACAUGAUGAUGCCUGAACAGCCUUGGUUUUUUG: 2; GACCAAUCUGCUCUCAGAGCUCGAGAACAUCUUCGGAUGCAGAGGAGGCAGGCUUCGGUGUCGCGAUAGCGCCAACGUCCUCAACCUCCAAUGCAUCCCACCACUUGAUGAUGCCUGAAGAGCCUUGGUUUUUUG: -1.42.
As to GACCAAUCUGCUCUCAGAGCUCGAGAACAUCUUCGGAUGCAGAGGAGGCAGGCUUCGGUGGCGCGAUAGCGCCAACGUCCUCAACCUCCAAUGCAUCCCACCACAUGAUGAUGCCUGAAGAGCCUUGGUUUUUUU, the “polymerase ribozyme fitness (log ratio)” value came out at 0.000607.
On to GACCAAUCUGCUCUCAGAGCUCGAGAACAUCUUCGGAUGCAGAGGAGGCAGGCUUCGGUGGCGCGAUAGCCCCAACGUCCUCAACCUCCAAUGCAUCCCACCACAUGAUGAUGCCUGAAGAGCCUUGGUUUUUUG, for which the “polymerase ribozyme fitness (log ratio)” value is -0.564.
Next, GACCAAUCUGCUCUCAGAGCUCGAGAACAUCUUCGGAUGCAGAGGAGGCAGGCUUCGGUGGCGCGAUAGCGCCAACGUCCUCAACCUCCAAUGCAUCCCACCACAUGAUGAUACCUGAAGAGCCAUGGUUUUUUG: -0.67; GACCAAUCUGCUCUCAGAGCUCGAGAACAUCUUCGGAGGCAGAGGAGGCAGGCUUCGGUGGCUCGAUAGCGCCAACGUCCUCAACCUCCAAUGCAUCCCACCACAUGAUGAUGCCUGAAGAGCCUUGGUUUUUUG: -1.77.
Next, GACCAAUCUGCUCUCAGAGCUCGAGAACAUCUUCGGACGCAGAGGAGGCAGGCUUCGGUGGCGCGAUAGCGCCAACGUCCUCAACCUCCAAUGCAUCCCACCACAUAAUGAUGCCUCAAGAGACUUGGUUUUUUG: -5.15.
In the case of GACCAAUCUGCUCUCAGAGCUCGAGAACAUCUUCGGAUGCAGAGGAGGCAGGCUUCGGUGUCGCGAUAGCGCCAACGUCCUCAACCUCCAAUGCAUCCCACCACAUGAGGAUGCCUGAAUAGCCUUGGUUUUUUG, the “polymerase ribozyme fitness (log ratio)” value was -4.29.
Consider GACCAAUCUGCUCUCAGAGCGCGAGAACAUCUUCGGAUGCAGAGGAGGCAGGCUUCGGUGGCGCGAUAGCGCCAACGUCCUCAACCUUCAAUGCAUCCCACCACAUGAUGAUGCCUGAAGAGCCUUGGUUUUUUG, for which the “polymerase ribozyme fitness (log ratio)” value was -2.37.
GACCAAUCUGCUCUCAGAGCUCGAGAACAUCUUCGGAUGCAGAGGAGGCAGGCUUCGGUCGCGCGAUAGCGCCAACGUCCUCAACCUCCAAUGCAUCCCACCACAUGAGGAUGCCUGAAGAGCCUUGGUUUUUUG: the “polymerase ribozyme fitness (log ratio)” value is -4.
With GACCAAUCUGCUCUCAGAGCUCGAGAACAUCUUCGGAUGCAGAGGAGGCAGGCAUAGGUGGCGCGAUAGCGCCAACGUCCUCAACCUCCACUGCAUCCCACCACAUGAUGAUGCUUGAAGAGCCUUGGUUUUUUG the figure was -1.35.
With GACCAAUCUGCUCUCAGAGCUCGAGAACAUCUUCGGAUGCAGAGGAGGCAGGCUUCGGUGGCACGAUAGCGCCAACGUCCUCAACCUCCAAUGCAUCCCACCACAGGAUGAUGCCUGAAGAGCCUUGGUUUUUUG the figure was -3.38; with GACCAAUCUGCUCUCAGAGCUCGAGAACAUCUUCGGAUGCAGAGGAGGCAGGCUUCGGUGGCGCGAUAGCGCCAACGUCCUCAACCUCCAAUGCAUCCCACCACAUGAUGAUGCCUGAAGAGCCUUGGUUUUGUG, -0.256; with GACCAAUCUGCUCUCAGAGCUCGAGAACAUCUUCGGAUGCAGAGGAGGCAGGCUUCGGUGGCUCGAUAGAGCCAACGUCCUAAACCUCCAAUGCAUCCCACCACAUGAUGAUGCAUGAAGAGCCUUGAUUUUUUG, -1.07.
As for GACCAAUCUGCUCUCAGAGCUCGAGAACAUCUUCGGAUGCAGAGGAGGCAGGCUUCGGUGGCUCGAUAGCGCCAACGAUCUCAACCUCCAAUGCAUCCCACCACAUGAUGAUGCCUGAAGAGCCUUGGUUUUUUG, the “polymerase ribozyme fitness (log ratio)” value was determined as 0.0353.
Next, GACCAAUCUGCUCUCAGAGCUCGAGAACAUCUGCGGAUGCAGAGGAGGCAGGCUUCGGUGGGGCGAUAGCGCCAACGUCCUCAACCUCCAAUGCAUCCCACCACUUGAUGAGGCCUGAAGAGCCAUGGUUUUUUG: -6.16.
